For this assay, the target named is T1, TRAIL R1-Fc fusion protein (UniProt O00220 24-239, limits assumed).
T1 construct: The construct is not described beyond its name; not shown: Fc portion
Kind of assay: immunoprecipitation with receptor-Fc from lysates of HA-TRAIL-s transfected 293T cells, Western blot. For orientation: In western blotting, separated proteins are transferred to a membrane and probed.

T1 sequence (O00220 24-239 limits assumed): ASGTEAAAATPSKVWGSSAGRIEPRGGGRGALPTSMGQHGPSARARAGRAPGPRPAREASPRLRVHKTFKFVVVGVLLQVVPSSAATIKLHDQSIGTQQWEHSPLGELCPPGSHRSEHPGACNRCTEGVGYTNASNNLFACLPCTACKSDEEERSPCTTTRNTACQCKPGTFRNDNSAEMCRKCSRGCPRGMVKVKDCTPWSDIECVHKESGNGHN

B1: HA-tagged TRAIL-s (ligand)
chain: MAMMEVQGGPSLGQTCVLIVIFTVLLQSLCVAVTYVYFTNELKQMQDKYSKSGIACFLKEDDSYWDPNDEESMNSPCWQVKWQLRQLVRKTPRMKRLWAAK
notes: also called HA-TRAIL-s; not shown: HA tag of the HA-pcDNA3 vector
As for B1, the binding result is given as “no binding”.

The values above are taken from US20100172914A1 (MAYO FOUNDATION FOR MEDICAL EDUCATION AND RESEARCH, published 2010).
